Test results published in PMC7036032 (Molecular cell, 2019).
One block for each binder: values may come before it.

How the values were obtained:
[1] = biological target: T1, human CPSF160-WDR33 (1-572) complex (human, UniProt Q10570 1-1443; Q9C0J8 1-572); assay: SEC
[2] = biological target: T1, human CPSF160-WDR33 (1-572) complex; assay: cryo-EM structure
[3] = biological target: T1, human CPSF160-WDR33 (1-572) complex; assay: pull-down

T1 sequence (Q10570 whole entry, chain 1 of 2): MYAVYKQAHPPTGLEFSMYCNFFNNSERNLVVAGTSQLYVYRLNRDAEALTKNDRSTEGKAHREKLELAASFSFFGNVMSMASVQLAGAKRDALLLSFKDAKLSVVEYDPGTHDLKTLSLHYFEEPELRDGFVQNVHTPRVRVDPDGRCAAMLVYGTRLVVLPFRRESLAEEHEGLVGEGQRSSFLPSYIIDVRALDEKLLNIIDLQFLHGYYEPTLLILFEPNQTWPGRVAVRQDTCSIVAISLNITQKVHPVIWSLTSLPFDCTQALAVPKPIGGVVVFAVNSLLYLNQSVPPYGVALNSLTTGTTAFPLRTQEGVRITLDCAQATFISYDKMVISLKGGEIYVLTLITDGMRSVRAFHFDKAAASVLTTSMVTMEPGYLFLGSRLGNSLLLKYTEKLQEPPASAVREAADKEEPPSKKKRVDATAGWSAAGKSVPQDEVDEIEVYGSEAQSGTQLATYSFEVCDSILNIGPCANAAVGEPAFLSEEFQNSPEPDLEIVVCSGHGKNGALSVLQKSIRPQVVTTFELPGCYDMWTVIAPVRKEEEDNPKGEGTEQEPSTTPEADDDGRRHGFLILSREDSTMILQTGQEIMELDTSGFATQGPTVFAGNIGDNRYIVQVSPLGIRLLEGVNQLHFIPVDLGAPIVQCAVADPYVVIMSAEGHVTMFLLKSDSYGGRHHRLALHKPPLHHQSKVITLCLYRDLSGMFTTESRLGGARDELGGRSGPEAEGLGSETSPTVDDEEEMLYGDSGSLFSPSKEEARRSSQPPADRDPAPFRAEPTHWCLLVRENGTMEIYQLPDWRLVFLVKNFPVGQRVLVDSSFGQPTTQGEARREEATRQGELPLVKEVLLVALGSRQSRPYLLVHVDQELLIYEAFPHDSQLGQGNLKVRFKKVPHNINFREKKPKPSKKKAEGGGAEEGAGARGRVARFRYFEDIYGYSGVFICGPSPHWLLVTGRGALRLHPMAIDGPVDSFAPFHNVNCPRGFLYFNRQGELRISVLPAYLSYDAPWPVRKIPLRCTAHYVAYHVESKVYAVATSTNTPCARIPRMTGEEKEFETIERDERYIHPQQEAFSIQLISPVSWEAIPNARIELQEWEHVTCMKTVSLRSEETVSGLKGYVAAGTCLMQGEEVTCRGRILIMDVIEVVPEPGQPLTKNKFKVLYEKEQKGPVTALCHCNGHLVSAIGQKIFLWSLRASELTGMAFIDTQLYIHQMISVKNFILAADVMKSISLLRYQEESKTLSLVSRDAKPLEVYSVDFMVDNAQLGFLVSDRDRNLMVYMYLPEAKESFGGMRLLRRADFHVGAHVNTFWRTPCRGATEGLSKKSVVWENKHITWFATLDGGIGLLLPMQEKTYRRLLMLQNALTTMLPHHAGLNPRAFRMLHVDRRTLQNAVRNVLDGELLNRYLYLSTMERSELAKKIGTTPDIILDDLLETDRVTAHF
T1 sequence (Q9C0J8 1-572, chain 2 of 2): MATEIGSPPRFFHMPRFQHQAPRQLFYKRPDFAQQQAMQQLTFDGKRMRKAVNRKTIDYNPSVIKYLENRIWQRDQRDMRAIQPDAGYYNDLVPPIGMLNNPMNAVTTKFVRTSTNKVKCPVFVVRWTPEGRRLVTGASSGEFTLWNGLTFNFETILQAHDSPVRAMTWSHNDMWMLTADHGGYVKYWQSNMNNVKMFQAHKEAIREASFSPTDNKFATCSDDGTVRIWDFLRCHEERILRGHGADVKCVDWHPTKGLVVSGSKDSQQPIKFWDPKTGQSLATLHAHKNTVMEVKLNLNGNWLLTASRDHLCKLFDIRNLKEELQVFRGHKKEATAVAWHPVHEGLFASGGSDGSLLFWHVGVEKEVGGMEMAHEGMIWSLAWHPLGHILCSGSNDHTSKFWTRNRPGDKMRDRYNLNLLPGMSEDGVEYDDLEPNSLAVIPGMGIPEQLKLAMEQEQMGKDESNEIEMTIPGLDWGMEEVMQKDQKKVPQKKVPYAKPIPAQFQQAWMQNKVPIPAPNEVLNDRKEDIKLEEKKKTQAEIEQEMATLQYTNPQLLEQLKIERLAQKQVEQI

binding result [1]: binds
B1: human CPSF30-Fip1(1-243) complex (complex)
chain 1: MQEIIASVDHIKFDLEIAVEQQLGAQPLPFPGMDKSGAAVCEFFLKAACGKGGMCPFRHISGEKTVVCKHWLRGLCKKGDQCEFLHEYDMTKMPECYFYSKFGECSNKECPFLHIDPESKIKDCPWYDRGFCKHGPLCRHRHTRRVICVNYLVGFCPEGPSCKFMHPRFELPMGTTEQPPLPQQTQPPAKQRTPQVIGVMQSQNSSAGNRGPRPLEQVTCYKCGEKGHYANRCTKGHLAFLSGQ
chain 2: MSAGEVERLVSELSGGTGGDEEEEWLYGGPWDVHVHSDLAKDLDENEVERPEEENASANPPSGIEDETAENGVPKPKVTETEDDSDSDSDDDEDDVHVTIGDIKTGAPQYGSYGTAPVNLNIKTGGRVYGTTGTKVKGVDLDAPGSINGVPLLEVDLDSFEDKPWRKPGADLSDYFNYGFNEDTWKAYCEKQKRIRMGLEVIPVTSTTNKITAEDCTMEVTPGAEIQDGRFNLFKVQQGRTGN

binding result [2]: binds
B2: CPSF30 (isoform 2) (natural protein, human, UniProt O95639-2 1-244, looked up)
chain: B1 chain 1

binding result [3]: binds
B3: MBP-CPSF100 (full length) (natural protein, human, UniProt Q9P2I0 1-782, looked up)
chain: MTSIIKLTTLSGVQEESALCYLLQVDEFRFLLDCGWDEHFSMDIIDSLRKHVHQIDAVLLSHPDPLHLGALPYAVGKLGLNCAIYATIPVYKMGQMFMYDLYQSRHNTEDFTLFTLDDVDAAFDKIQQLKFSQIVNLKGKGHGLSITPLPAGHMIGGTIWKIVKDGEEEIVYAVDFNHKREIHLNGCSLEMLSRPSLLITDSFNATYVQPRRKQRDEQLLTNVLETLRGDGNVLIAVDTAGRVLELAQLLDQIWRTKDAGLGVYSLALLNNVSYNVVEFSKSQVEWMSDKLMRCFEDKRNNPFQFRHLSLCHGLSDLARVPSPKVVLASQPDLECGFSRDLFIQWCQDPKNSIILTYRTTPGTLARFLIDNPSEKITEIELRKRVKLEGKELEEYLEKEKLKKEAAKKLEQSKEADIDSSDESDIEEDIDQPSAHKTKHDLMMKGEGSRKGSFFKQAKKSYPMFPAPEERIKWDEYGEIIKPEDFLVPELQATEEEKSKLESGLTNGDEPMDQDLSDVPTKCISTTESIEIKARVTYIDYEGRSDGDSIKKIINQMKPRQLIIVHGPPEASQDLAECCRAFGGKDIKVYMPKLHETVDATSETHIYQVRLKDSLVSSLQFCKAKDAELAWIDGVLDMRVSKVDTGVILEEGELKDDGEDSEMQVEAPSDSSVIAQQKAMKSLFGDDEKETGEESEIIPTLEPLPPHEVPGHQSVFMNEPRLSDFKQVLLREGIQAEFVGGVLVCNNQVAVRRTETGRIGLEGCLCQDFYRIRDLLYEQYAIV

binding result [3]: binds
B4: MBP-CPSF100 (460-486) (domain or fragment, human, UniProt Q9P2I0 460-486, looked up)
chain: SYPMFPAPEERIKWDEYGEIIKPEDFL
